Test results: patent US20100062001A1 (TECHNION RESEARCH AND DEVELOPMENT, published 2010)

Target: HLA-A2-G9-209 complex (as used for the affinity of 9H) (human, UniProt P61769 21-119; P40967 209-217)
Assay: method not stated (data not shown)

B1: 9H scFv antibody (scFv)
scFv: EVQLLESGGGLVQPGGSLRLSCAASGFTFQYYAMSWVRQAPGKGLEWVSSINWNSGTLDYADSVKGRFTISRDNSKNTLYLQMNSLRAEDTAVYYCARYSNYGLYAMDVWGQGTLVTVSSSGGGGSGGGGSGGGGSSDIVLTQPPSASGTPGQRVTISCSGSSSNIGSNPVTWYQQLPGTAPKPLIYGDSYRPSGVPDRFSGSKSGTSASLAISGLRSEDEADYYCATWDDDVNGVIFGGGTQLTVLR
notes: also called scFv 9H; clone 9H
B1 gave a Kd of 0.5 nM.
